Source: patent publication US20210155689A1 (SHANGHAI PHARMAEXPLORER, published 2021)
Residue numbers refer to the chain shown, from its start.

B1: 556F6B8 mouse-human chimeric antibody (antibody, V domains shown)
VH: RVQLKQSGPGLVQPSQSLSITCTVSGFSLIKYGVHWVRQSPGEGLEWLGVIWRGGITDYNAAFMSRLSITKDNSKSQVFFKMNSLQADDTAIYYCAKWDGPLAMDYWGQGTSVTVSS
VL: DIVMTQSHKFLSTSVGDRVSITCKASQDVGTTVAWYQQKPGQSPKLLIYWASTRHTGVPDRFTGSGSGTDFTLTISNVQSEDLADYFCQQYSSYPYTFGGGTKLEIK
notes: also called mAb123-556F6B8; 556F8B8
B2: 556F6B8 (mouse antibody purified from hybridoma) (antibody, V domains shown)
VH: B1 VH
VL: B1 VL
notes: also called mAb123-556F6B8
B3: 405B8H3 (mouse antibody purified from hybridoma) (antibody, V domains shown)
VH: QVQLQQSGAELVRPGASVTLSCKASGYTFTDYEMHWVKQTPVHGLEWIGATDPETGNSAYNQKFKGKAIMTADKSSSTAYMELRSLTSEDSAVYYCISTGWNDWGQGTSLTVSS
VL: DIKMTQSPSSMYASLGERVTITCKASQDINSYLSWFQQKPGKSPKTLIYRADRLLDGVPSRFSGSGSGQDYSLTISSLEYGDMGIYYCLQYDEFPYTFGGGTKLEIK
notes: also called mAb103-405B8H3; 405B81-13
B4: 105F1E10 (mouse antibody purified from hybridoma) (antibody, V domains shown)
VH: EVQLQQSGPELVKPGASVKMSCRASGYTFTDFKMHWMKQSHGKSLEWIGYIAPNNGGTAYNQKFRGKATLTVNESSNTAYMELRSLTSEDSAVYYCVDWDDVDYWGQGTTLTVSS
VL: B3 VL with P40S, D52N, L55V, G81E, D92V, Y96L, G100A, I106L
notes: also called mAb009-105F1E10
B5: 105F1E10 mouse-human chimeric antibody (antibody, V domains shown)
VH: B4 VH
VL: B3 VL with P40S, D52N, L55V, G81E, D92V, Y96L, G100A, I106L
notes: also called mAb009-105F1E10
B6: 405B8H3 mouse-human chimeric antibody (antibody, V domains shown)
VH: B3 VH
VL: B3 VL
notes: also called mAb103-405B8H3
B7: 409D4E10 mouse-human chimeric antibody (antibody, V domains shown)
VH: B3 VH with Y27N, G56D, S58T, M70L, A72T, S98T, T99S
VL: B3 VL with D52N, G81E, D92N
notes: also called mAb112-409D4E10
B8: 409D4E10 (mouse antibody purified from hybridoma) (antibody, V domains shown)
VH: B3 VH with Y27N, G56D, S58T, M70L, A72T, S98T, T99S
VL: B3 VL with D52N, G81E, D92N
notes: also called mAb112-409D4E10
B9: 409B11E12 (mouse antibody purified from hybridoma) (antibody, V domains shown)
VH: B3 VH with P41T, G56S, N57Y, M70L, S98A
VL: B3 VL with I2L, D52N, G81E
notes: also called mAb104-409B11E12
B10: 409B11E12 mouse-human chimeric antibody (antibody, V domains shown)
VH: B3 VH with P41T, G56S, N57Y, M70L, S98A
VL: B3 VL with I2L, D52N, G81E
notes: also called mAb104-409B11E12

Columns and labels:
[1] = target: T1, LAG-3-hFc protein (human LAG-3 extracellular region with hFc tag) (human, UniProt P18627 23-450); test: FACS, inhibition of LAG-3-hFc binding to MHC II on Raji cells, antibody 0.274 nM
T1 construct: also called hLAG-3-hFc; LAG-3 protein; not shown: human IgG Fc fragment (hFc) of the pCpC vector
T1 sequence: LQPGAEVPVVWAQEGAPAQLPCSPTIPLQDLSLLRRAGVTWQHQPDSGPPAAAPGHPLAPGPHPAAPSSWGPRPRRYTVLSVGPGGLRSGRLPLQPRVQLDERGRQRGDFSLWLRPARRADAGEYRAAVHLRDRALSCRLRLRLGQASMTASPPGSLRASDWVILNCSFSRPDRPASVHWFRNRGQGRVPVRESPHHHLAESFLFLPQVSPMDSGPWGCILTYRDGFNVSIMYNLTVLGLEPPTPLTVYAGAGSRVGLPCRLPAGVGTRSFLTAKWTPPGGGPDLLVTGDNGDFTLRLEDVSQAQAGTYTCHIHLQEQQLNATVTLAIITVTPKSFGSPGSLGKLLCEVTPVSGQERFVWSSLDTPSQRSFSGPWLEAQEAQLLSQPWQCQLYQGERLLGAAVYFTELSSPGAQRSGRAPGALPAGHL
Procedure: The FACS reaction plate incubating the Raji cells was centrifuged to discard the supernatant. The above mixture was added as 100 μl per well to Raji cells and incubated on ice for 1-2 hours. The plate was washed twice with blocking solution (PBS, 2% fetal bovine serum) by centrifugation, added with 100 microliters of fluorescent (Alexa 488)-labeled secondary antibodies per well, and incubated on ice for 1.0 hours. The plate was washed 2-3 times by centrifugation with blocking solution (PBS, 2% fetal bovine serum), added with 100 microliters of PBS per well to suspend cells, and detected using FACS (FACS Calibur, BD) and the results were analyzed. Wherein, the IgG control was murine IgG, and the data in the table is the inhibition rate (%).

[2] = target: T2, monkey LAG-3 on cells (HEK293-cLAG-3 stable cell line) (monkey, UniProt P18627 24-525 (human entry)); test: FACS, HEK293-cLAG-3, antibody 200.000 nM
T2 construct: Full-length monkey (Chinese monkey) LAG-3 gene expressed on HEK293 cells
T2 chain: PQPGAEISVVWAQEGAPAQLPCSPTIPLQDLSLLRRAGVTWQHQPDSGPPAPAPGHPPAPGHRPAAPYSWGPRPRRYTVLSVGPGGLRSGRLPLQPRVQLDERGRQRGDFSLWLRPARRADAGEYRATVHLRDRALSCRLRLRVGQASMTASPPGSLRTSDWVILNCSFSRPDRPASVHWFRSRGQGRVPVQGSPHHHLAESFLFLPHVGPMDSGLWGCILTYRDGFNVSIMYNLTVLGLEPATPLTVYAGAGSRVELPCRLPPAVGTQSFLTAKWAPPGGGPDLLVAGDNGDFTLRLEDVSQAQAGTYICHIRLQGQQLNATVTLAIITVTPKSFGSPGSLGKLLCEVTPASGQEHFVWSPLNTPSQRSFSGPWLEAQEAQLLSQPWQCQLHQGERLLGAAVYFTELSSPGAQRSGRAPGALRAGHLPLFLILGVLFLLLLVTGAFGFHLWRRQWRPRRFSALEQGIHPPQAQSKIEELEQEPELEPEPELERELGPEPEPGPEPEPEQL
Text: (§1) The pIRES plasmid with the monkey-derived full-length gene was transfected into the HEK293 cell line to construct a HEK293 stable cell line containing monkey LAG-3 (herein referred to as HEK293-cLAG-3 stable cell line). The HEK293-hLAG-3 stable cell line and HEK293-cLAG-3 stable cell line were expanded in a T-75 cell culture flask to a 90% confluence. The medium was aspirated, and the cells were washed with HBSS (Hanks' Balanced Salt Solution) 1-2 times, then treated with a enzyme-free cell dissociation fluid (Versene solution: Life technology) and the cells were collected. The cells were washed with HBSS buffer for 1-2 times. After counted, the cells were diluted with HBSS to 1-2×10⁶ cells per ml, added with 1% goat serum blocking solution, incubated on ice for 20-30 minutes, and then washed with HBSS for 2 times by centrifugation. The collected cells were suspended in the FACS buffer (HBSS+1% BSA) to 2×10⁶ cells/ml, added as 100 microliters per well to a 96-well FACS reaction plate, added with 100 microliters per well of the antibody sample to be tested, incubated on ice for 1-2 hours. The plate was washed twice with the FACS buffer by centrifugation, added with 100 microliters of fluorescent (Alexa 488)-labeled secondary antibodies per well, and incubated on ice for 0.5-1.0 hours. The plate was washed 2-3 times with FACS buffer by centrifugation, added with 100 μl fixative solution (4% Paraformaldehyde) per well to suspend the cells. 5-10 minutes later, it was washed 1-2 times with FACS buffer by centrifugation. The cells were suspended with 100 microliters of FACS buffer, FACS (FACSCalibur, BD) was used for detection and the results were analyzed.

[3] = target: T3, monkey LAG-3 (full length, on the cell surface) (monkey, UniProt P18627 24-525 (human entry)); test: FACS, HEK293-cLAG-3; 1.600 nM
T3 construct: also called HEK293-cLAG-3; monkey LAG-3 protein on the cell surface
T3 chain: T2 chain
Text: as §1

Binder	Inhibition rate (%) [1]	Mean fluorescence intensity [2]	Mean fluorescence intensity [3]
B1	21.5%	90.5	
B2			24.2 MFI
B3			23 MFI
B4			15.4 MFI
B5	-10.1%	94.5	
B6	4.3%	108	
B7	11.3%	103	
B8			36.1 MFI
B9			24.4 MFI
B10	4.4%	114	
